*1 amine or outer side, *2 acyl side, *3 side chain or, on linkers, in order; H or OH if unused. Where no end group is shown, it is not given here. Side-chain parts run from the residue outwards. [ ]: non-standard residue; d: D form. The star is where a group is joined. γGlu = O=C(O)[C@H](CCC(=O)[*:2])N[*:1]; Palmitoyl = CCCCCCCCCCCCCCCC(=O)*; Ac4c = NC1(C(=O)O)CCC1
B1: Co-agonist Peptide 13 (peptide)
peptide: H[Ac4c]QGTFTSDK([γGlu-γGlu-Palmitoyl])SKYLDERAAQDFVQWLLDT-NH2
modifications: N-terminus assumed
SMILES: CCCCCCCCCCCCCCCC(=O)N[C@@H](CCC(=O)N[C@@H](CCC(=O)NCCCC[C@H](NC(=O)[C@H](CC(=O)O)NC(=O)[C@H](CO)NC(=O)[C@@H](NC(=O)[C@H](Cc1ccccc1)NC(=O)[C@@H](NC(=O)CNC(=O)[C@H](CCC(N)=O)NC(=O)C1(NC(=O)[C@@H](N)Cc2c[nH]cn2)CCC1)[C@@H](C)O)[C@@H](C)O)C(=O)N[C@@H](CO)C(=O)N[C@@H](CCCCN)C(=O)N[C@@H](Cc1ccc(O)cc1)C(=O)N[C@@H](CC(C)C)C(=O)N[C@@H](CC(=O)O)C(=O)N[C@@H](CCC(=O)O)C(=O)N[C@@H](CCCNC(=N)N)C(=O)N[C@@H](C)C(=O)N[C@@H](C)C(=O)N[C@@H](CCC(N)=O)C(=O)N[C@@H](CC(=O)O)C(=O)N[C@@H](Cc1ccccc1)C(=O)N[C@H](C(=O)N[C@@H](CCC(N)=O)C(=O)N[C@@H](Cc1c[nH]c2ccccc12)C(=O)N[C@@H](CC(C)C)C(=O)N[C@@H](CC(C)C)C(=O)N[C@@H](CC(=O)O)C(=O)N[C@H](C(N)=O)[C@@H](C)O)C(C)C)C(=O)O)C(=O)O
B2: Co-agonist Peptide 3 (peptide)
peptide: H[dS]QGTFTSDK([γGlu-γGlu-Palmitoyl])SKYLDVRAAQDFVQWLLDT-NH2
modifications: N-terminus assumed
SMILES: CCCCCCCCCCCCCCCC(=O)N[C@@H](CCC(=O)N[C@@H](CCC(=O)NCCCC[C@H](NC(=O)[C@H](CC(=O)O)NC(=O)[C@H](CO)NC(=O)[C@@H](NC(=O)[C@H](Cc1ccccc1)NC(=O)[C@@H](NC(=O)CNC(=O)[C@H](CCC(N)=O)NC(=O)[C@@H](CO)NC(=O)[C@@H](N)Cc1c[nH]cn1)[C@@H](C)O)[C@@H](C)O)C(=O)N[C@@H](CO)C(=O)N[C@@H](CCCCN)C(=O)N[C@@H](Cc1ccc(O)cc1)C(=O)N[C@@H](CC(C)C)C(=O)N[C@@H](CC(=O)O)C(=O)N[C@H](C(=O)N[C@@H](CCCNC(=N)N)C(=O)N[C@@H](C)C(=O)N[C@@H](C)C(=O)N[C@@H](CCC(N)=O)C(=O)N[C@@H](CC(=O)O)C(=O)N[C@@H](Cc1ccccc1)C(=O)N[C@H](C(=O)N[C@@H](CCC(N)=O)C(=O)N[C@@H](Cc1c[nH]c2ccccc12)C(=O)N[C@@H](CC(C)C)C(=O)N[C@@H](CC(C)C)C(=O)N[C@@H](CC(=O)O)C(=O)N[C@H](C(N)=O)[C@@H](C)O)C(C)C)C(C)C)C(=O)O)C(=O)O
B3: Co-agonist Peptide 9 (peptide)
peptide: HXQGTXTSDKSKYLDERAAQDFVQWLLDT
modifications: D-Ser at 2; p-fluorophenylalanine (pFF) at 6; Lys 10 conjugated to γEγE-C16 (palmitoyl); C-terminal amide
B4: Co-agonist Peptide 8 (peptide)
peptide: H[dS]QGTFTSDK([γGlu-γGlu-Palmitoyl])SKYLEARAAQDFVQWLLDT-NH2
modifications: N-terminus assumed
SMILES: CCCCCCCCCCCCCCCC(=O)N[C@@H](CCC(=O)N[C@@H](CCC(=O)NCCCC[C@H](NC(=O)[C@H](CC(=O)O)NC(=O)[C@H](CO)NC(=O)[C@@H](NC(=O)[C@H](Cc1ccccc1)NC(=O)[C@@H](NC(=O)CNC(=O)[C@H](CCC(N)=O)NC(=O)[C@@H](CO)NC(=O)[C@@H](N)Cc1c[nH]cn1)[C@@H](C)O)[C@@H](C)O)C(=O)N[C@@H](CO)C(=O)N[C@@H](CCCCN)C(=O)N[C@@H](Cc1ccc(O)cc1)C(=O)N[C@@H](CC(C)C)C(=O)N[C@@H](CCC(=O)O)C(=O)N[C@@H](C)C(=O)N[C@@H](CCCNC(=N)N)C(=O)N[C@@H](C)C(=O)N[C@@H](C)C(=O)N[C@@H](CCC(N)=O)C(=O)N[C@@H](CC(=O)O)C(=O)N[C@@H](Cc1ccccc1)C(=O)N[C@H](C(=O)N[C@@H](CCC(N)=O)C(=O)N[C@@H](Cc1c[nH]c2ccccc12)C(=O)N[C@@H](CC(C)C)C(=O)N[C@@H](CC(C)C)C(=O)N[C@@H](CC(=O)O)C(=O)N[C@H](C(N)=O)[C@@H](C)O)C(C)C)C(=O)O)C(=O)O
B5: Co-agonist Peptide 12 (peptide)
peptide: HXQGTFTSDXSKYLDARAAQDFVQWLLDT
modifications: D-Ser at 2; para-aminomethyl phenylalanine (pAF) at 10 conjugated to γEγE-C16 (palmitoyl); C-terminal amide
B6: Co-agonist Peptide 10 (peptide)
peptide: HXQGTFTSDKSKYLDERAAQDFVQWLXDT
modifications: D-Ser at 2; Lys 10 conjugated to γEγE-C16 (palmitoyl); methionine sulfone at 27; C-terminal amide
B7: Co-agonist Peptide 11 (peptide)
peptide: H[dS]QGTFTSDK([γGlu-γGlu-Palmitoyl])SLYLDERAAQDFVQWLLDT-NH2
modifications: N-terminus assumed
SMILES: CCCCCCCCCCCCCCCC(=O)N[C@@H](CCC(=O)N[C@@H](CCC(=O)NCCCC[C@H](NC(=O)[C@H](CC(=O)O)NC(=O)[C@H](CO)NC(=O)[C@@H](NC(=O)[C@H](Cc1ccccc1)NC(=O)[C@@H](NC(=O)CNC(=O)[C@H](CCC(N)=O)NC(=O)[C@@H](CO)NC(=O)[C@@H](N)Cc1c[nH]cn1)[C@@H](C)O)[C@@H](C)O)C(=O)N[C@@H](CO)C(=O)N[C@@H](CC(C)C)C(=O)N[C@@H](Cc1ccc(O)cc1)C(=O)N[C@@H](CC(C)C)C(=O)N[C@@H](CC(=O)O)C(=O)N[C@@H](CCC(=O)O)C(=O)N[C@@H](CCCNC(=N)N)C(=O)N[C@@H](C)C(=O)N[C@@H](C)C(=O)N[C@@H](CCC(N)=O)C(=O)N[C@@H](CC(=O)O)C(=O)N[C@@H](Cc1ccccc1)C(=O)N[C@H](C(=O)N[C@@H](CCC(N)=O)C(=O)N[C@@H](Cc1c[nH]c2ccccc12)C(=O)N[C@@H](CC(C)C)C(=O)N[C@@H](CC(C)C)C(=O)N[C@@H](CC(=O)O)C(=O)N[C@H](C(N)=O)[C@@H](C)O)C(C)C)C(=O)O)C(=O)O

How the values were obtained:
human GLP-1 receptor = human GLP-1 receptor (human, UniProt P43220 24-463); assay: cell-based or functional assay
human glucagon receptor = human glucagon receptor (human, UniProt P47871 26-477); assay: cell-based or functional assay
Sequence of human glucagon receptor (P47871 26-477): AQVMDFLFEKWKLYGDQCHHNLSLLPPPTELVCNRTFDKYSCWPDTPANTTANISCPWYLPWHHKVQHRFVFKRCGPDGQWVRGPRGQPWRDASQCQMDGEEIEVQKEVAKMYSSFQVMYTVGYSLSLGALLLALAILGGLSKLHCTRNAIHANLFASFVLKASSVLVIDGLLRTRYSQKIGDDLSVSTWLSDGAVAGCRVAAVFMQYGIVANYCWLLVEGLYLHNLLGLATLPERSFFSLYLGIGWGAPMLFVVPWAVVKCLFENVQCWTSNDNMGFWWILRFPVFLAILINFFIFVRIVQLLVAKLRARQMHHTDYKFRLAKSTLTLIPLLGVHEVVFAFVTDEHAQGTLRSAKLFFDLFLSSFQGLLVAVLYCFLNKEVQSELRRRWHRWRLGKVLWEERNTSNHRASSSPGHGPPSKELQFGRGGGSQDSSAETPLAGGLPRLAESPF

Row | Binder | GLPR1 EC50 (nM) human; cAMP production (HitHunter cAMPXS), 20% human serum (human GLP-1 receptor) | GCGR EC50 (nM) human; cAMP production (HitHunter cAMPXS), 20% human serum (human glucagon receptor) | hGCGR/hGLP1R (hTone): ratio of cAMP EC50 at human GCGR to cAMP EC50 at human GLP1R (human glucagon receptor)
1 | B1 | 0.05 nM | 0.06 nM | 1.25 ratio
2 | B2 | 0.13 nM | 0.08 nM | 0.6 ratio
3 | B3 | 0.06 nM | 0.05 nM | 0.93 ratio
4 | B4 | 0.02 nM | 0.02 nM | 0.9 ratio
5 | B5 | 0.05 nM | 0.05 nM | 0.98 ratio
6 | B6 | 0.02 nM | 0.02 nM | 1.1 ratio
7 | B7 | 0.06 nM | 0.06 nM | 0.91 ratio

From US20160114000A1 (Merck Sharp & Dohme, published 2016)
